# Data taken from article PMC8532174.
# Biological target: NS3h_2a(JFH1) helicase, wild type (Hepatitis C virus genotype 2a, isolate …, UniProt Q99IB8 1196-1661)
# Assay: fluorescence polarization
# Sequence of NS3h_2a(JFH1) helicase, wild type (Q99IB8 1196-1661): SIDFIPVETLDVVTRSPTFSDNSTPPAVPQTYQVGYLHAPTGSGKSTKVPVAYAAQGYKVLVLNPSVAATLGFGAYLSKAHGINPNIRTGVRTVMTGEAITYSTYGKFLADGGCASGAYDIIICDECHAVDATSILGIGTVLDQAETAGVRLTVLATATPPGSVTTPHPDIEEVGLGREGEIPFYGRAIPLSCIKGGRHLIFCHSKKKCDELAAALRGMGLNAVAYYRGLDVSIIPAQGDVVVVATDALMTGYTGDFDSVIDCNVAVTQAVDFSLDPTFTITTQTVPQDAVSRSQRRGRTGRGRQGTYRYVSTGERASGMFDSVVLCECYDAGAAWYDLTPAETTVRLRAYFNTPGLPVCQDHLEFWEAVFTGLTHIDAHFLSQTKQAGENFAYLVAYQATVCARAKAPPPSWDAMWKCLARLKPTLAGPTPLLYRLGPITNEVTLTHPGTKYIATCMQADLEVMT
binder,measurement,value
TTTTTTTTTTTTTTT (ssDNA) [Cy5-dT15],binding result,binds
